Results on 25 molecules are retold here after patent US20220267462A1 (HARPOON THERAPEUTICS, published 2022).

One experiment has as its target T1, cynomolgus EpCAM protein (cynomolgus, UniProt Q1WER1 27-265 (rhesus entry), limits assumed, biotinylated in the Octet assays (site not stated)).
T1 construct: also called cy EpCAM; biotinylated cynomolgus EpCAM protein
T1 sequence: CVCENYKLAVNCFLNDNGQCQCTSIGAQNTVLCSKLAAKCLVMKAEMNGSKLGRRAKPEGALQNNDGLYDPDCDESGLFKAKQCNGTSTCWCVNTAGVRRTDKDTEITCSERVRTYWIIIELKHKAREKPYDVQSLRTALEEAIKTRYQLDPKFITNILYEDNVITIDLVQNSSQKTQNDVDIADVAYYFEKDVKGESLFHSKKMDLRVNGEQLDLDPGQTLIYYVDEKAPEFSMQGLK
Briefly: colorimetric ELISA. From the text: (§1) A phage display library for expression of heavy variable antibody domains was constructed from circulating B cells. See van der Linden, de Geus, Stok, Bos, van Wassenaar, Verrips, and Frenken. 2000. J Immunol Methods 240:185-195.
In general terms: In an ELISA, binding on a coated surface is turned into a signal by an enzyme label.

The next experiment concerns the target T2, human EpCAM protein (human, UniProt P16422 24-265, biotinylated in the Octet assays (site not stated)).
T2 construct: also called hu EpCAM; biotinylated human EpCAM protein
T2 sequence: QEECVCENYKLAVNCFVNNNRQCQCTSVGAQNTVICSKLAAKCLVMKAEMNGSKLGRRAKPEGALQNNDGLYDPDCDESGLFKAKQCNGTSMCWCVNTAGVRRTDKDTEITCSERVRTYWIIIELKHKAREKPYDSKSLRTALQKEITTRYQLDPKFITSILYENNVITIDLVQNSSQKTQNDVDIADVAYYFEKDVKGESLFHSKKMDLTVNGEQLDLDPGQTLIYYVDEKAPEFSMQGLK
Briefly: colorimetric ELISA.
Excerpt: as §1

B1: EPL117 (VHH)
VHH: QVQLQESGGGLVQAGGSLRLSCAASGNIVRMTNMAWYRQAPGKQREFVATISAGGSTTYVDSVKDRFTISRDNTKNTVYLQMNYLKPEDTAVYYCATGSILTNRGAIPGSWGHGTQVTVSS
Turning to B1, the “Cynomolgus EpCAM/Control” value with cynomolgus EpCAM protein is 3. In addition, the “Human EpCAM/Control” value with human EpCAM protein amounted to 4.

B2: EPL152 (VHH)
VHH: QVQLQESGGGLVQAGGSLRLSCVHSGSIFRASTMAWYRQAPGKQRELVAQIMSGGGTNYAGSVKGRFTISRDNANNTVYLQMNSLKPEDTAVYYCNAAQITSWGPKVYWGQGTQVTVSS
Consider B2, for which the “Cynomolgus EpCAM/Control” value with cynomolgus EpCAM protein came out at 4. The “Human EpCAM/Control” value with human EpCAM protein came to 4.

B3: EPL138 (VHH)
VHH: QVQLQESGGGLVQAGGSLRLSCAASGFIFRAASMDWYRQFPGNERESIATISSGGFTNYADSVKGRFTISRDNAKNTVYLQMNSLKPEDTAVYFCGATFLRSDGHHTINGQGTQVTVSS
In the case of B3, in the experiment with cynomolgus EpCAM protein, the “Cynomolgus EpCAM/Control” value came out at 3. Moreover, the “Human EpCAM/Control” value in the experiment with human EpCAM protein came out at 3.

B4: EPL189 (VHH)
VHH: QVQLQESGGGLVQPGGSLRLSCAASGRINSINTMGWYRQAPGNQRELVAEITRGGTTNYADSVQGRYAISRDNAKNLVYLQMNSLKPEDTDVYYCNAQTFPTFSRPTGLDYWGQGTQVTVSS
For B4, the “Cynomolgus EpCAM/Control” value with cynomolgus EpCAM protein stood at 8. Moreover, the “Human EpCAM/Control” value with human EpCAM protein came to 12.

B5: EPL82 (VHH)
VHH: QVQLQESGGGLVQAGGSLKLSCTASGTILSTMAWYRQAPGKQRELVATISRGGTTNYSDSVKGRFAISRDSTKNTVYLQMNSLKPEDTAVYYCNTPLTDYGMGYNWGQGTQVTVSS
B5: the “Cynomolgus EpCAM/Control” value with cynomolgus EpCAM protein was 5. Besides, in the experiment with human EpCAM protein, the “Human EpCAM/Control” value worked out at 4.

B6: EPL127 (VHH)
VHH: QVQLQESGGGLVQAGGSLRLSCAAPGFAFNDHAILWFRQAPGKEREGVSEICRDGTTYYTDSVKGRFTISSDNAKNTVYLQMNSVKTDDTAVYYCAVDRRRYYCSGNRAFSSDYYYWGQGTQVTVSS
As for B6, the “Cynomolgus EpCAM/Control” value in the experiment with cynomolgus EpCAM protein amounted to 11. The “Human EpCAM/Control” value with human EpCAM protein turned out to be 5.

B7: EPL83 (VHH)
VHH: QVQLQESGGGLVQAGGSLRLSCAVSGSIFSLNTLAWYRQAPGRQRDLIARITGGGTTVYADSVKGRFTISRDNAKNTVYLQMNSLKPEDTAVYYCNLMVRHPSGSTYEYWGQGTQVTVSS
As for B7, the “Cynomolgus EpCAM/Control” value in the experiment with cynomolgus EpCAM protein was 2. The “Human EpCAM/Control” value with human EpCAM protein turned out to be 3.

B8: EPL49 (VHH)
VHH: QVQLQESGGGLVQAGGSLRLSCAPSGRTSSIFGMGWFRQAPGKEREFVASINWSGGSTSYADSVKGRFTISRDNAKNEMYLQMNSLKFEDTAVYVCAAAVLTNKPSWNFWGQGTQVTVSS
With B8, the “Cynomolgus EpCAM/Control” value with cynomolgus EpCAM protein was found to be 4. In the experiment with human EpCAM protein, the “Human EpCAM/Control” value stood at 8.

B9: EPL58 (VHH)
VHH: QVQLQESGGGLVQAGGSLRLSCAASGPIFSDTIRTMGWYRQAAGKQRELVATIASFPSRTNYVDSVKGRFTISRDIAKNTVYLQMDSLKPEDTAVYYCNVDLASIPTKTYWGQGTQVTVSS
Regarding B9, the “Cynomolgus EpCAM/Control” value in the experiment with cynomolgus EpCAM protein stood at 4. Moreover, the “Human EpCAM/Control” value in the experiment with human EpCAM protein is 8.

B10: EPL74 (VHH)
VHH: QVQLQESGGGLVQAGGSLRLSCAASGSIFGINAMGWYRQAPGKQRESVAFITIGGNTNYLDSVKGRFTISRDNAKNTVYLQMNGLKPEDTAVYYCNTNPPLILTAGGLYWGQGTQVTVSS
For B10, the “Cynomolgus EpCAM/Control” value in the experiment with cynomolgus EpCAM protein worked out at 5. The “Human EpCAM/Control” value with human EpCAM protein stood at 10.

B11: EPL31 (VHH)
VHH: QVQLQESGGGLVHTGGSLRLSCAASGDTFLRYAMGWFRQAPGKEREFVAAITWNGGNTDYAGSLKGRFTISRDNTKNTVYLQMNSLKPEDTAVYYCAADLTFGLASSHYQYDYWGQGTQVTVSS
B11: the “Cynomolgus EpCAM/Control” value with cynomolgus EpCAM protein worked out at 6. For the same molecule, the “Human EpCAM/Control” value with human EpCAM protein amounted to 7.

B12: EPL136 (VHH)
VHH: QVQLQESGGGLVQPGGSLRLSCAASGDTFLRYAMGWFRQAPGKEREFVAAITWNGGNTDYAGSLKGRFTISRDNTKNTVYLQMNSLKPEDTAVYYCAADLTFGLASSHYQYDYWGQGTQVTVSS
Consider B12, for which the “Cynomolgus EpCAM/Control” value with cynomolgus EpCAM protein was 13. Moreover, the “Human EpCAM/Control” value in the experiment with human EpCAM protein was 9.

B13: EPL55 (VHH)
VHH: QVQLQESGGGLVQAGGSLRLSCAASGDTFLRYAMGWFRQAPGKEREFVAAITWNGGNTDYAGSLKGRFTISRDNTKNTVYLQMNSLKPEDTAVYYCAADLTFGLASSHYQYDYWGQGTQVTVSS
Consider B13, for which, in the experiment with cynomolgus EpCAM protein, the “Cynomolgus EpCAM/Control” value worked out at 7. For the same molecule, the “Human EpCAM/Control” value with human EpCAM protein worked out at 5.

B14: EPL57 (VHH)
VHH: QVQLQESGGGLVHTGGSLRLSCAFSGDTFLRYAMGWFRQAPGKEREFVAAITWNGGNTDYADSLKGRFTISRDNTKNTVYLQMNSLRPEDTAVYYCAADLTFGLASSHYQYDYWGQGTQVTVSS
Consider B14, for which the “Cynomolgus EpCAM/Control” value with cynomolgus EpCAM protein amounted to 27. In the experiment with human EpCAM protein, the “Human EpCAM/Control” value was 14.

B15: EPL97 (VHH)
VHH: QVQLQESGGGLVQAGGSLRLSCAASGIIFRGTTMGWFRQAPGKQRESVASISPLGTTSYSGSVEGRFTVSRDNAKNTLFLQMNSLKSEDTAVYYCNAIQVTNVGPRVYWGQGTQVTVSS
With B15, the “Cynomolgus EpCAM/Control” value with cynomolgus EpCAM protein is 5. In the experiment with human EpCAM protein, the “Human EpCAM/Control” value amounted to 8.

B16: EPL109 (VHH)
VHH: QVQLQESGGGLVQPGGSLRLSCASSGFTLDDYTIGWFRQAPGKEREGVSCISRRDDSTYYADSVKGRFTISRDNAKNTVDLQMISLRPEDTAVYYCAATPRSYTLRCLGKFDFQGQGTQVTVSS
For the molecule B16, in the experiment with cynomolgus EpCAM protein, the “Cynomolgus EpCAM/Control” value came to 2. The “Human EpCAM/Control” value with human EpCAM protein was 5.

B17: EPL126 (VHH)
VHH: QVQLQESGGGLVQAGGSLRLSCAASGFIFRAASMGWYRQSPGNERELVATINSGGFTNYADSVKGRFTISRDNAKNTGYLQMNSLKPEDTAVYFCAATFLRSDGQPPIWGQGTQVTVSS
Consider B17, for which the “Cynomolgus EpCAM/Control” value with cynomolgus EpCAM protein was 4. Besides, in the experiment with human EpCAM protein, the “Human EpCAM/Control” value is 5.

B18: EPL118 (VHH)
VHH: QVQLQESGGGLVQAGGSLRLSCAASGFIFRAASMGWFRQSPGNERELVATVSSGDFTNYADSVKGRFTISRDNAKNTVYLQMNSLKPEDTAVYFCGATFVRSDGHHTIYGQGTQVTVSS
With B18, the “Cynomolgus EpCAM/Control” value with cynomolgus EpCAM protein was determined as 4. Further, the “Human EpCAM/Control” value in the experiment with human EpCAM protein worked out at 5.

B19: EPL164 (VHH)
VHH: QVQLQESGGGLVQAGGSLRLSCAASGFIFRAASMDWYRQSPGTQPELVATISSTGFTNYANSVKGRFTISRDNAKNTVYLQMNSLKPEDTAVYFCGATFLRSDGQHSIYGQGTQVTVSS
Turning to B19, the “Cynomolgus EpCAM/Control” value with cynomolgus EpCAM protein came to 34. For the same molecule, the “Human EpCAM/Control” value in the experiment with human EpCAM protein came out at 7.

B20: EPL120 (VHH)
VHH: QVQLQESGGGLVQAGGSLRLSCAASGFIFRAASISWYRQSPGNERELVATINSGGFTNYADSVLGRFTISRDNAKNTGYLQMNSLKPEDTAVYFCAATFLRSDGQPPIWGQGTQVTVSS
On to B20, for which the “Cynomolgus EpCAM/Control” value with cynomolgus EpCAM protein is 4. Moreover, the “Human EpCAM/Control” value with human EpCAM protein worked out at 5.

B21: EPL90 (VHH)
VHH: QVQLQESGGGLVQAGGSLRLSCAASGFIFRAASMAWYRQSPGNERELVASISSGAFTNYADSVKARFTISRDNAKNTVYLQMNSLKPEDTAVYFCGATFLRSDGHHTINGQGTQVTVSS
notes: llama anti-EpCAM heavy chain only single domain antibody; tested as E. coli periplasmic extract
Take B21: the “Cynomolgus EpCAM/Control” value with cynomolgus EpCAM protein was 10. In addition, the “Human EpCAM/Control” value with human EpCAM protein was found to be 10.

B22: EPL10 (VHH)
VHH: QVQLQESGGGLVQAGGSLRLSCAASGSVFRANVMGWYRQAPGKQHELVARIDPGGTTTYADPVKGRFTISRDNAKKTVYLQMNSLKPDDTAVYYCNAIILLSGGPKDYWGQGTQVTVSS
Turning to B22, the “Cynomolgus EpCAM/Control” value with cynomolgus EpCAM protein was 9. For the same molecule, the “Human EpCAM/Control” value with human EpCAM protein was 12.

B23: EPL2 (VHH)
VHH: QVQLQESGGGLVQPGGSLRLSCAASESISSFIAVGWYRQAPGKERELVAGINRSGFTYYTDSVKGRFSISRDNAKNTVLLQMTSLKPEDTAVYYCNAGGLYFSNAYTQGDYWGQGTQVTVSS
Regarding B23, the “Cynomolgus EpCAM/Control” value with cynomolgus EpCAM protein stood at 24. In the experiment with human EpCAM protein, the “Human EpCAM/Control” value came out at 15.

B24: EPL43 (VHH)
VHH: QVQLQESGGGLVQTGGSLRLSCAASESISSFIAVGWYRQAPGKERELVAGINRSGFTYYTDSVKGRFSISRDNAKNTVLLQMTSLKPEDTAVYYCNAGGLYFSNAYTQGDYWGQGTQVTVSS
With B24, the “Cynomolgus EpCAM/Control” value with cynomolgus EpCAM protein came out at 27. For the same molecule, the “Human EpCAM/Control” value in the experiment with human EpCAM protein came out at 13.

B25: EPL78 (VHH)
VHH: QVQLQESGGGLVQPGGSLRLSCATSANRFNINVMGWYRQAPGQQRELVATINIGGSTDYADSVKGRFTISRDNAKNTVYLQLSDLKPEDTAVYYCNVKLRVSGPTGPNVYWGQGTQVTVSS
Regarding B25, the “Cynomolgus EpCAM/Control” value in the experiment with cynomolgus EpCAM protein came out at 11. Further, the “Human EpCAM/Control” value with human EpCAM protein turned out to be 17.
